Here are results for 59 variants from the MegaScale stability set (Tsuboyama et al. 2023).

B1: HEEH_KT_rd6_3632 (parent)
chain: DAEELIELVERALKEGREIILLGVRITSEEAGKWFIEWIRRFL

In this data set the parent is B1. Description: folding stability dG (cDNA display proteolysis); higher = more stable. As to conditions: PBS, room temperature.
On to DAEELIELVERALKEGREIILLGVRITSEEAGKWFIEWIRRFF [L43F], for which the “folding stability dG” value was determined as 4.01 kcal/mol.

Turning to DAEELIELVERALKEGREIILLGVRITSEEAGKWFIEWIRRFD [L43D], the “folding stability dG” value was determined as 2.75 kcal/mol.

With DAEELIELVERALKEGREIILLGVRITSEEAGKWFIEWIRRFA [L43A], the “folding stability dG” value came to 3.35 kcal/mol.

Regarding DAEELIELVERALKEGREIILLGVRITSEEAGKWFIEWIRRFE [L43E], the “folding stability dG” value amounted to 2.91 kcal/mol.

On to DAEELIELVERALKEGREIILLGVRITSEEAGKWFIEWYRRFL [I39Y], for which the “folding stability dG” value is 3.43 kcal/mol.

On to DAEELIELVERALKEGREIILLGVRITSEEAGKWFIEWKRRFL [I39K], for which the “folding stability dG” value is 2.56 kcal/mol.

Consider DAEELIELVERALKEGREIILLGVRITSEEAGKWFIEWCRRFL [I39C], for which the “folding stability dG” value amounted to 3.49 kcal/mol.

Regarding DAEELIELVERALKEGREIILLGVRITSEEAGKWFIEWARRFL [I39A], the “folding stability dG” value amounted to 2.92 kcal/mol.

DAEELIELVERALKEGREIILLGVRITSEEAGKWFIEWQRRFL [I39Q]: the “folding stability dG” value was found to be 2.63 kcal/mol.

Regarding DAEELIELVERALKEGREIILLGVRITSEEAGKWFIEWDRRFL [I39D], the “folding stability dG” value is 2.51 kcal/mol.

Regarding DAEELIELVERALKEGREIILLGVRITSEEAGKWFIEWSRRFL [I39S], the “folding stability dG” value amounted to 2.66 kcal/mol.

As to DAEELIELVERALKEGREIILLGVRITSEEAGKWFIEWGRRFL [I39G], the “folding stability dG” value was found to be 2.66 kcal/mol.

With DAEELIELVERALKEGREIILLGVRITSEEAGKWFIEWERRFL [I39E], the “folding stability dG” value was 2.69 kcal/mol.

On to DAEELIELVERALKEGREIILLGVRITSEEAGKWFIEWPRRFL [I39P], for which the “folding stability dG” value is 2.22 kcal/mol.

As to DAEELIELVERALKEGREIILLGVRITSEEAGKWFIEWTRRFL [I39T], the “folding stability dG” value amounted to 2.46 kcal/mol.

DAEELIELVERALKEGREIILLGVRITSEEAGKWFIEWFRRFL [I39F]: the “folding stability dG” value worked out at 3.46 kcal/mol.

For DAEELIELVERALKEGREIILLGVRITSEEAGKWFIEWMRRFL [I39M], the “folding stability dG” value is 3.58 kcal/mol.

In the case of DAEELIELVERALKEGREIILLGVRITSEEAGKWFIEWRRRFL [I39R], the “folding stability dG” value was found to be 2.71 kcal/mol.

As to DAEELIELVERALKEGREIILLGVRITSEEAGKWFIEWHRRFL [I39H], the “folding stability dG” value was 2.73 kcal/mol.

Take DAEELIELVERALKEGREIILLGVRITSEEAGKWFIEWWRRFL [I39W]: the “folding stability dG” value is 3.23 kcal/mol.

For DAEELIELVERALKEGREIILLGVRITSEEAGKWFIEWNRRFL [I39N], the “folding stability dG” value came to 2.64 kcal/mol.

Regarding DAEELIELVERALKEGREIILLGVRITSEEAGKWFIEWVRRFL [I39V], the “folding stability dG” value was 3.62 kcal/mol.

In the case of DAEELIELVERALKEGREIILLGVRITSEEAGKWFIEWLRRFL [I39L], the “folding stability dG” value worked out at 4.03 kcal/mol.

Regarding DAEELIELVERALKEGREIILLGVRITSEEAGKWFIEWIRRQL [F42Q], the “folding stability dG” value was 3.29 kcal/mol.

DAEELIELVERALKEGREIILLGVRITSEEAGKWFIEWIRRNL [F42N]: the “folding stability dG” value was 3.19 kcal/mol.

Turning to DAEELIELVERALKEGREIILLGVRITSEEAGKWFIEWIRRVL [F42V], the “folding stability dG” value is 3.58 kcal/mol.

On to DAEELIELVERALKEGREIILLGVRITSEEAGKWFIEWIRRPL [F42P], for which the “folding stability dG” value was found to be 2.5 kcal/mol.

Regarding DAEELIELVERALKEGREIILLGVRITSEEAGKWFIEWIRRAL [F42A], the “folding stability dG” value turned out to be 3.21 kcal/mol.

As for DAEELIELVERALKEGREIILLGVRITSEEAGKWFIEWIRREL [F42E], the “folding stability dG” value amounted to 2.91 kcal/mol.

As for DAEELIELVERALKEGREIILLGVRITSEEAGKWFIEWIRRGL [F42G], the “folding stability dG” value amounted to 3.06 kcal/mol.

Turning to DAEELIELVERALKEGREIILLGVRITSEEAGKWFIEWIRRDL [F42D], the “folding stability dG” value was found to be 2.51 kcal/mol.

For the variant DAEELIELVERALKEGREIILLGVRITSEEAGKWFIEWIRRTL [F42T], the “folding stability dG” value is 3.35 kcal/mol.

Consider DAEELIELVERALKEGREIILLGVRITSEEAGKWFIEWIRRML [F42M], for which the “folding stability dG” value came out at 3.76 kcal/mol.

As to DAEELIELVERALKEGREIILLGVRITSEEAGKWFIEWIRRWL [F42W], the “folding stability dG” value came out at 4.07 kcal/mol.

Turning to DAEELIELVERALKEGREIILLGVRITSEEAGKWFIEWIRRHL [F42H], the “folding stability dG” value was 3.45 kcal/mol.

In the case of DAEELIELVERALKEGREIILLGVRITSEEAGKWFIEWIRRKL [F42K], the “folding stability dG” value came out at 3.15 kcal/mol.

In the case of DAEELIELVERALKEGREIILLGVRITSEEAGKWFIEWIRRSL [F42S], the “folding stability dG” value is 3.15 kcal/mol.

Regarding DAEELIELVERALKEGREIILLGVRITSEEAGKWFIEWIRRLL [F42L], the “folding stability dG” value was 3.73 kcal/mol.

For the variant DAEELIELVERALKEGREIILLGVRITSEEAGKWFIEWIRRRL [F42R], the “folding stability dG” value was found to be 3.29 kcal/mol.

As to DAEELIELVERALKEGREIILLGVRITSEEAGKWFIEWIRRYL [F42Y], the “folding stability dG” value was determined as 3.72 kcal/mol.

As to DAEELIELVERALKEGREIILLGVRITSEEAGKWFIEWIRRIL [F42I], the “folding stability dG” value was determined as 3.67 kcal/mol.

Regarding DAEELIELVERALKEGREIILLGVRITSEEAGKWFIEWIWRFL [R40W], the “folding stability dG” value is 3.85 kcal/mol.

As to DAEELIELVERALKEGREIILLGVRITSEEAGKWFIEWIIRFL [R40I], the “folding stability dG” value stood at 3.77 kcal/mol.

With DAEELIELVERALKEGREIILLGVRITSEEAGKWFIEWIDRFL [R40D], the “folding stability dG” value was 2.87 kcal/mol.

As for DAEELIELVERALKEGREIILLGVRITSEEAGKWFIEWIKRFL [R40K], the “folding stability dG” value stood at 3.69 kcal/mol.

As to DAEELIELVERALKEGREIILLGVRITSEEAGKWFIEWIQRFL [R40Q], the “folding stability dG” value is 3.32 kcal/mol.

For the variant DAEELIELVERALKEGREIILLGVRITSEEAGKWFIEWIHRFL [R40H], the “folding stability dG” value is 3.32 kcal/mol.

On to DAEELIELVERALKEGREIILLGVRITSEEAGKWFIEWIGRFL [R40G], for which the “folding stability dG” value came to 3.04 kcal/mol.

As for DAEELIELVERALKEGREIILLGVRITSEEAGKWFIEWIVRFL [R40V], the “folding stability dG” value was found to be 3.48 kcal/mol.

For the variant DAEELIELVERALKEGREIILLGVRITSEEAGKWFIEWITRFL [R40T], the “folding stability dG” value was 3.46 kcal/mol.

Take DAEELIELVERALKEGREIILLGVRITSEEAGKWFIEWIPRFL [R40P]: the “folding stability dG” value is 2.68 kcal/mol.

On to DAEELIELVERALKEGREIILLGVRITSEEAGKWFIEWINRFL [R40N], for which the “folding stability dG” value was 3.14 kcal/mol.

As for DAEELIELVERALKEGREIILLGVRITSEEAGKWFIEWIARFL [R40A], the “folding stability dG” value worked out at 3.39 kcal/mol.

As for DAEELIELVERALKEGREIILLGVRITSEEAGKWFIEWIMRFL [R40M], the “folding stability dG” value was found to be 3.89 kcal/mol.

In the case of DAEELIELVERALKEGREIILLGVRITSEEAGKWFIEWIERFL [R40E], the “folding stability dG” value stood at 2.85 kcal/mol.

Take DAEELIELVERALKEGREIILLGVRITSEEAGKWFIEWILRFL [R40L]: the “folding stability dG” value was found to be 3.83 kcal/mol.

For DAEELIELVERALKEGREIILLGVRITSEEAGKWFIEWISRFL [R40S], the “folding stability dG” value is 3.27 kcal/mol.

Consider DAEELIELVERALKEGREIILLGVRITSEEAGKWFIEWICRFL [R40C], for which the “folding stability dG” value turned out to be 4.03 kcal/mol.

On to DAEELIELVERALKEGREIILLGVRITSEEAGKWFIEWIYRFL [R40Y], for which the “folding stability dG” value came to 3.69 kcal/mol.
